Laboratory results as given in the nanobody polyreactivity screen of Harvey et al. (2022).

Assay: yeast display, Sf9 membrane polyspecificity reagent, FACS + sequencing; frameworks hold sequencing errors
Procedure, shortened: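 In a synthetic yeast display library (Saccharomyces cerevisiae BJ5465), nanobody expression was induced with galactose for 36–48 hours. FACS gates were set low and high (top ~1%) using anti-HA fluorescence for expression and streptavidin fluorescence for binding of the Sf9 membrane reagent. Each polyreactivity label is drawn from the gate of origin.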
In the case of “QVQLVESGGSLVQAGGSHRLSCAASRSIFPPYAMGWYRPAAGKERELVAAITLRGGSTYYADSVKGRFTISRDNAKNTVYLQMNSLKPEDTAVYYCAAYKSAREYYWGQGTQVTVSS”, the “polyreactivity (PSR sort gate)” value is reported as “high polyreactivity”. With “QVQLVESGGGLVQAGGSLRLSCAGSGRIFLDKAMGWYRQAPGKERELVAAINGSGGSTYYADSVKGRFTISRDNAKNTVYLQMNSLKPKIPRSITATKRYIQSLWGFDYWGQGTQVTVSS” the “polyreactivity (PSR sort gate)” value was “low polyreactivity”. In the case of “QVQLVESGGGLVQAGGSLRFSCADSGSTFGTYAMGWYRQAPGKERELVAAISWSGGSTYYADSVKGRFTISRDNAKNTVYLQMNSLKPEDTAVYWGQGTQVTVSS”, the “polyreactivity (PSR sort gate)” value is reported as “low polyreactivity”. For “QVQLVESGGGLVQAGGSLRLSCAASGRTFVSNAMGWYRQAPGKERELVAGINWTDDSTYYADSVKGRFTISRDNAKNTVYLQMNSLKPEDTAVYYCAADSWEFAWPRFDYWGQGTQVTVSS”, the “polyreactivity (PSR sort gate)” value was “low polyreactivity”. For “QVQLVESGGGLVQAGGSLRLTCAASGRIFNYYAMGWYRQAPGKEREFVAAITRSGGRTYYADSVKGRFTISRDNAKNTVYLQMNSLKPEDTAVYYCAAPYGTYAYDYWGQGTQVTVSS”, the “polyreactivity (PSR sort gate)” value was “high polyreactivity”. For “QVQLVESGGGLVQAGGILRISCAASGSTFGWYTMGWYRQAPGKERELVAAITSRGTRTSYADSVTGRFTISRDIAKNTVYLQMNSLKTEDTAVYYCAARVFRGLGEYYWGQGTQVTVSS”, the “polyreactivity (PSR sort gate)” value was “high polyreactivity”. For “QVQRVESGGRLVQAGGSLRLSCAASGSTFPSYAMGWSRQAPGKERELVAAISWSGGTTYYADSVKGRFTISRDNAKNTVYLQMNSLKPEDTAVYYCAAGGRRQAYGRRDYWGQGNQVTVSS”, the “polyreactivity (PSR sort gate)” value was “high polyreactivity”. In the case of “QVQLVESGGGLVQAGGSLRLSCAASGITFGRYAMGWYRQAPGKERELVAAISWSGGSTYYADSVKGRFTLSRDNAKNTVYLQMNSLKPEDTAVYYCAVEWYYTSYHIRFYRDNYWGQGTQVTVSS”, the “polyreactivity (PSR sort gate)” value is reported as “high polyreactivity”. With “QVQLVESGGGLVQAGGSLRLSCAASGRTFNGNAMGWYRQAPGKERELVAAISWSGGSTYYADSVKGRFTISRDNAKNTVYLQMNSLKPEDTAVYYCNADYFAWDLMYYWGQGTQVTVSS” the “polyreactivity (PSR sort gate)” value was “low polyreactivity”. With “PVQLVETGGGLVQAGGSLRLSCAASGRTFYRYAMGWYRQAPGKERELVAAITRRVDSTSYADSVKGRFTISRDNAKNTVYLQMNSLKPEDTAVYYCATLVQGSVYGVYGGGYWGQGTQVTVSS” the “polyreactivity (PSR sort gate)” value was “low polyreactivity”. In the case of “QVQLVESGGGLVQAGGSLRLSCAASGFTFGTYAMGWYRQAPGKERELVAAISARGGSTYYADSVKGRFTISRDNAKNTVYLQMNSLKPEDTAVYYCAAYYGRHVTPPTGYDYWGQGTQVTVSS”, the “polyreactivity (PSR sort gate)” value is reported as “high polyreactivity”. In the case of “QVQLVESGGGLVQAGGSLRLICAASGLIFYRNAMGWYRQAPGKERELVAAISSGGRTYYADSVKGRFTISRDNEKNTVYLQMNSLKPEDTAVYYCAASYWKPHRESGYDYWGQGTQVTVSS”, the “polyreactivity (PSR sort gate)” value is reported as “high polyreactivity”. For “QVQLVESGGGLVQAGGSLRLRCAASGLTFVDNAMGWYSQAPGKERELVAAITKRGGRTYYADSVKGRFTISRDNAKNTVYLQMNSLKPEDPAVYYCARDSGNDSSRRLDYWGQGTQVTVSS”, the “polyreactivity (PSR sort gate)” value was “low polyreactivity”. In the case of “QVQLVESGGGLVQAGGSLRLSCAASGRTFPGYAMGWYRQAPGKERELVAGISYRGGSTYYADSVKGRFTISRDNAKNTVYLQMYSLKPEDTAVYYCARDYSRHKGDYWGQGTQVTVSS”, the “polyreactivity (PSR sort gate)” value is reported as “low polyreactivity”. For “QVQLVESGGGLVQAGGSLRLSCAASGSTLITNDMGWYRQAPGKERELVATITYGTGSTYYADSVKGRFTISRDNAKNTVYLQMNSLKPEDTAVYYCNARRNYPKDSDGYDYWGQGTQVTVSS”, the “polyreactivity (PSR sort gate)” value was “low polyreactivity”. In the case of “QVQLVESGGGLVQAGGSLRLSCAASGSTFATNAMGWYRQAPGKERELVATISSDGSTNYADSVKGRFTISRDNAKNTVYLQMNSLKPEDTAVYYCATEVTYPWHVDEGDYWGQGTQVTVSS”, the “polyreactivity (PSR sort gate)” value is reported as “low polyreactivity”. With “QVQLVESGGGLVQAGGSLRLSCAASGFIFAWYAMGWYRQAPGKERELVAAISYSGGSTYYADSVKGRFTISRDNAKNTVYLEMNSLKPEDTAVYYCNKVSRGGSYGHAFDYWGQGTQVTVSS” the “polyreactivity (PSR sort gate)” value was “high polyreactivity”. For “QVQLQESGGGVQAGGSLRLSCAASGSISAPILMVWYRQAPGKERELVAGIGGGANTYYADSVKGRFTVSRDNAKYTVYLQMNSLKPEDTAVYYCAAGDYYWTNFGYWGQGTQVTASS”, the “polyreactivity (PSR sort gate)” value was “high polyreactivity”. For “QVQLVESGGGLVQAGGSLRLSCAASGRTFRYYAMGWYRQAPGKERELFAAITSTGSTNYADSVKGRFTISRDNAKNTVYLQMNSLKPEDTAVYYCAARVNGKRRRYDYWGQGTQVTVSS”, the “polyreactivity (PSR sort gate)” value was “high polyreactivity”. With “QFQLVESGRGLVQAGGSLRLSCAASGRTFTYYAMGWYRQAPGNERELVAAIRYTGGSTHYADSVKGRFTISRENAKNTVYFQMNSLKPEDTAVYYCADRRAYTRGGTVYFGYYYWGQGTQVTVSS” the “polyreactivity (PSR sort gate)” value was “high polyreactivity”. In the case of “QVQLVESGGGLVQAGGSLRLSCAASGFTFSWYAMGCYRQAPGKVRELVAAITSRGGITYYADSVKGRFTISRDNAKNTVYLQMNSLKPEDTAVYYCNAYSQRYGYYYWGQGTQVTVSS”, the “polyreactivity (PSR sort gate)” value is reported as “high polyreactivity”. In the case of “QVQLVESGGGLVQAGGSLRLSCAASGFTFIWYAMGWYRQAPGKETELVATISWNGGRTYYADSVKGRFTISRDNANNTVYLQMNSLKPEDTAVYYCAADQGVYRTYWFDYWGQGTQVAVSS”, the “polyreactivity (PSR sort gate)” value is reported as “high polyreactivity”. With “QVQLVESGGGLVQAGGSLRLSCAASGIIFVYNAMGWYRQAPGKERELVAGISFIGDSTYYADSVKGRFTISRDNAKNTVYLQMNSLKPEDTAVYYCAADYYLPYWFFVGYDYWGQGTQVTVSS” the “polyreactivity (PSR sort gate)” value was “low polyreactivity”. For “QVQLVESGGGLVQAGGSLRLSCAASGFTFSYYAMGWYRQAPGKERELVAAITSGGRTYYADSVKGRFTISRDNAKNTVYLQMNSLKPEDTAVYYCATSSQRWFYSGNYWGQGTQVTVSS”, the “polyreactivity (PSR sort gate)” value was “high polyreactivity”. With “QVQLVESGGGLVQAGGSLRLSCAASGSTSFLYALGWYRQAPGKERELVAAISRSGGTTYYADSVKGRFTISRDNAKNTVYLQMNSLKPEDTAVYYCNAVGPKRYDYWGQGTQVTVSS” the “polyreactivity (PSR sort gate)” value was “high polyreactivity”. For “QVQLVESGGGLVHAGGSLRLSCAASGSTFSYNAMGWYRQAHGKERELVAAITSSGSSTYYADSVKGRFTISRYNAKNTVYLQMNSLKPEDTAVYYCKAEVLFVAGQVQRNSGDYWGQGTQVSVSS”, the “polyreactivity (PSR sort gate)” value was “low polyreactivity”. With “QVQLVESGGGLVQAGGSLRLSCSASGSIIVSYTMGWYRQAPGKERELVAAISGGGASTYYADSVKGRFTISRDNAKNTVYLQMNSLKPEDTAVYYCNADGYYDMDYCGQGTQVTVSS” the “polyreactivity (PSR sort gate)” value was “low polyreactivity”. For “QVQLVESGGGFVQAGGSLRFSCAASGRIFPGYAMGWYRQAPGKERELVAAISASGGSTYDADSVKGRFTISRDNAKNPVYLQMNSLKPEDPAVYYCNAVYRLIRFDYWGQGTQVTVSS”, the “polyreactivity (PSR sort gate)” value was “high polyreactivity”. In the case of “QVQLVESGGGLVQAGGRLRLSCAASGFTFPRYAMGWYRQAPGKERELVAAISRGGSTNYADSVKGRFTISRDNAKNTVYLQMNSLKPEDTAVYDCAKVLRRWPDPAWGMDYWGQGTQVTVSS”, the “polyreactivity (PSR sort gate)” value is reported as “high polyreactivity”. With “QVQLVESGGGLVQAGGSLRLSCAASGSIFSYYAMGWYRQAPGKERELVAAISQNGGSTYYADSVKGRFTNSRDNAKNSVSFQMNRLKAEETAVYYCYAYSVYVRGEYWGQGTQVTVSS” the “polyreactivity (PSR sort gate)” value was “high polyreactivity”. For “QVQLVESGGGVVQAGGSLRLTCAASGFTFSYNAMGWYRQAPGKERQLVAAISYSGGSTYYADSVKGRFTISRDTAKNTVYLQMNSLIPEHTAVYYCAAYSYYNYPNRGVYRGYYYWGQGTQGTVSS”, the “polyreactivity (PSR sort gate)” value was “high polyreactivity”. In the case of “QVQLVESGGGLVQAGGSLRLSCAASGSTCARNSMGWYRQAPGKERELVAAISYSGGTTYYADSVKGRFTISRDNAKNTVYLQRNSLKPEDTAVSYCAKWEGHGRNPWGAGTEGDYWGQGTQVTVSS”, the “polyreactivity (PSR sort gate)” value is reported as “low polyreactivity”. In the case of “QVQLVESGGGLVQAGGSLRLSCAASGFTFDLYAMGWYRQAPGKERELVAAISWSGGSTRYADSVKGRFTISRDNAKNTVYLQMNSLKPADSAVYYCARQPRLYFKGKLYGYWGQGTHVTVSS”, the “polyreactivity (PSR sort gate)” value is reported as “high polyreactivity”. For “QVQLVESGGGLVQAGGSLRLSCAASGSIFPAIAKGWYRQAPGTERELVAAISVSGARTYYADSVKGRFTISRDNAKNTVYLQMNSLKPEDTAVYYCAARAAGSQHDYWGQGTQVTVSS”, the “polyreactivity (PSR sort gate)” value was “high polyreactivity”. With “QVQLVESGGGLVQAGGSLRLSCAASGSIFFIYAMAWYRQAPGKERELVATISRSDVSTFYADSVKGRFTISRDNAKNTVYLQMNSLKPEDTAVYYCAARTGRGDRTRRYYYWGQGTQVTVSS” the “polyreactivity (PSR sort gate)” value was “high polyreactivity”. For “QVQLVESGGGLVQAGGSLRLSCAASGSTFPPYAMGWYRKATGNERELVADISSGVSTNYADSVNGRFTISRDNAKNTVYLQMHSLKPEDTAVYYCAADVYHYEWWYFSEFDYWGLGTQVTVSS”, the “polyreactivity (PSR sort gate)” value was “low polyreactivity”. In the case of “QVQLVESGGGLVQAGGSLRLSCAASGSTFYPYAMGWYRQAPGKERELVAAISRIGSRTYYADSVKGRFTISRDNAKNTVYLQMNSLKPEDTAVYYCNASYVLTGQRYGYWGQGTQVTVSS”, the “polyreactivity (PSR sort gate)” value is reported as “low polyreactivity”. In the case of “QVQLVESGGGLVQAGGSLRLSCADYGFIMLYYALVCYRQAPGKERELVAAISWTGGRTYYADSVKGRFTISRDNAKNTVYLQMNSLKPEDTAVYFCNTVKLFGRKYGYWGQGTQVTVSS”, the “polyreactivity (PSR sort gate)” value is reported as “low polyreactivity”. In the case of “QVQLVESGGGLVQAGGSLRLSCAASGRTFYANDMGWYRQAPGKERELVARITSGGSTYYADSVKGRFTISRDNAKNTVYLQMNSLKPEDTAVYYCAAVTRRFSYRYNYWGQGTQVTVSS”, the “polyreactivity (PSR sort gate)” value is reported as “high polyreactivity”. In the case of “QVQLVESGGGLVQAGGSLRLSCAASGFIFAWYAMGWYRQAPGKERELVASISVSDGSTYYADSVKGRFTISRDNAKNTVYLQMNSLKPEDTAVYYCAAEVSSDYYNSDYYWGQGTQVTVSS”, the “polyreactivity (PSR sort gate)” value is reported as “low polyreactivity”. In the case of “QVQLVESGGGLVQAGGSIRLSCAASGRIFRYYHMGWYRQAPGKERELVARISSTGRTYADSVKGRFTISRDNAKNSVYLQMYSLKPEDTAVYFCAALFHTRGHSKYDYWGQGTQVTVSS”, the “polyreactivity (PSR sort gate)” value is reported as “high polyreactivity”. With “QVQLVDSGGGLVQAGGSLRLSCAASGFTFTLNAMGWYRQAPGKERELVAGISSGGSTNYADSVKGRFTISRDNAKNTVYLQMNSLKPEDTAVYYCAADRGYVWRYDYWGEGTQVTVSS” the “polyreactivity (PSR sort gate)” value was “low polyreactivity”. In the case of “QVQLVESGGGLVQAGGSLRLSCAASGRTFSQNAMGWYRQAPGKERELVAAIRRGGSTNYADSVKGRFTISRDNEKNTVYLQMHSLKPEDTAVYYCAADLRRNGWGFDYWGQGTQVTVSS”, the “polyreactivity (PSR sort gate)” value is reported as “high polyreactivity”.
